Article PMC6191937 (Cell, 2018)

Molecular target: T1, EGFP-MOV10 (human, UniProt Q9HCE1 1-1003)
T1 sequence: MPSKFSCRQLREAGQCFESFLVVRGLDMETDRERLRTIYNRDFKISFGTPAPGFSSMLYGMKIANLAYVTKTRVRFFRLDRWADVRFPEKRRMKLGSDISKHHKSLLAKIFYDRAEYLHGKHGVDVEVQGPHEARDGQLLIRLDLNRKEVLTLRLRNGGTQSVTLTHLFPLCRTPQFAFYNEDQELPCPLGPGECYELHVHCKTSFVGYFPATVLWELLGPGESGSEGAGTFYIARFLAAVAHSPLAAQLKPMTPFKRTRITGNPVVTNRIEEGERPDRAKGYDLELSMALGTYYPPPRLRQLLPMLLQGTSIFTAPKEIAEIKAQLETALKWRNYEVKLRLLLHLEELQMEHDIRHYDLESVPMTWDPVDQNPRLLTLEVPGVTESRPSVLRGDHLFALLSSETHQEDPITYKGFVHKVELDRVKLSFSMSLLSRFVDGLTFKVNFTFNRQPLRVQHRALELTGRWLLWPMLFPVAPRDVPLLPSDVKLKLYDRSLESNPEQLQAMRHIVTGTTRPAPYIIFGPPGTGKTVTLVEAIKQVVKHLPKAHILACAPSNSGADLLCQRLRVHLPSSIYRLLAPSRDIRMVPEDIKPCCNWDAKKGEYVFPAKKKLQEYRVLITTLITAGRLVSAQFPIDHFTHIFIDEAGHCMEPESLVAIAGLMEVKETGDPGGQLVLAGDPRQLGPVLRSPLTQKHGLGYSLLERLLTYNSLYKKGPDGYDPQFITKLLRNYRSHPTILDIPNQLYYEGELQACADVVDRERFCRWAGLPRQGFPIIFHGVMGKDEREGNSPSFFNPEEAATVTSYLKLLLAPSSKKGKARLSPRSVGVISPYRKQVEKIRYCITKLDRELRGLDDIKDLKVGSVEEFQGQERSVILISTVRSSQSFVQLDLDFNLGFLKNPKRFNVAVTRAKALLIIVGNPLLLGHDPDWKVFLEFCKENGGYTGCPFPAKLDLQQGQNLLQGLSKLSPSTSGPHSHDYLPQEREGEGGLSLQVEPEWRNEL
Assay: co-IP

B1: TUT4 (natural protein)
chain: MEESKTLKSENHEPKKNVICEESKAVQVIGNQTLKARNDKSVKEIENSSPNRNSSKKNKQNDICIEKTEVKSCKVNAANLPGPKDLGLVLRDQSHCKAKKFPNSPVKAEKATISQAKSEKATSLQAKAEKSPKSPNSVKAEKASSYQMKSEKVPSSPAEAEKGPSLLLKDMRQKTELQQIGKKIPSSFTSVDKVNIEAVGGEKCALQNSPRSQKQQTCTDNTGDSDDSASGIEDVSDDLSKMKNDESNKENSSEMDYLENATVIDESALTPEQRLGLKQAEERLERDHIFRLEKRSPEYTNCRYLCKLCLIHIENIQGAHKHIKEKRHKKNILEKQEESELRSLPPPSPAHLAALSVAVIELAKEHGITDDDLRVRQEIVEEMSKVITTFLPECSLRLYGSSLTRFALKSSDVNIDIKFPPKMNHPDLLIKVLGILKKNVLYVDVESDFHAKVPVVVCRDRKSGLLCRVSAGNDMACLTTDLLTALGKIEPVFIPLVLAFRYWAKLCYIDSQTDGGIPSYCFALMVMFFLQQRKPPLLPCLLGSWIEGFDPKRMDDFQLKGIVEEKFVKWECNSSSATEKNSIAEENKAKADQPKDDTKKTETDNQSNAMKEKHGKSPLALETPNRVSLGQLWLELLKFYTLDFALEEYVICVRIQDILTRENKNWPKRRIAIEDPFSVKRNVARSLNSQLVYEYVVERFRAAYRYFACPQTKGGNKSTVDFKKREKGKISNKKPVKSNNMATNGCILLGETTEKINAEREQPVQCDEMDCTSQRCIIDNNNLLVNELDFADHGQDSSSLSTSKSSEIEPKLDKKQDDLAPSETCLKKELSQCNCIDLSKSPDPDKSTGTDCRSNLETESSHQSVCTDTSATSCNCKATEDASDLNDDDNLPTQELYYVFDKFILTSGKPPTIVCSICKKDGHSKNDCPEDFRKIDLKPLPPMTNRFREILDLVCKRCFDELSPPCSEQHNREQILIGLEKFIQKEYDEKARLCLFGSSKNGFGFRDSDLDICMTLEGHENAEKLNCKEIIENLAKILKRHPGLRNILPITTAKVPIVKFEHRRSGLEGDISLYNTLAQHNTRMLATYAAIDPRVQYLGYTMKVFAKRCDIGDASRGSLSSYAYILMVLYFLQQRKPPVIPVLQEIFDGKQIPQRMVDGWNAFFFDKTEELKKRLPSLGKNTESLGELWLGLLRFYTEEFDFKEYVISIRQKKLLTTFEKQWTSKCIAIEDPFDLNHNLGAGVSRKMTNFIMKAFINGRKLFGTPFYPLIGREAEYFFDSRVLTDGELAPNDRCCRVCGKIGHYMKDCPKRKSLLFRLKKKDSEEEKEGNEEEKDSRDVLDPRDLHDTRDFRDPRDLRCFICGDAGHVRRECPEVKLARQRNSSVAAAQLVRNLVNAQQVAGSAQQQGDQSIRTRQSSECSESPSYSPQPQPFPQNSSQSAAITQPSSQPGSQPKLGPPQQGAQPPHQVQMPLYNFPQSPPAQYSPMHNMGLLPMHPLQIPAPSWPIHGPVIHSAPGSAPSNIGLNDPSIIFAQPAARPVAIPNTSHDGHWPRTVAPNSLVNSGAVGNSEPGFRGLTPPIPWEHAPRPHFPLVPASWPYGLHQNFMHQGNARFQPNKPFYTQDRCATRRCRERCPHPPRGNVSE
Question: B1 was tested. Which “fold enrichment in the co-IP relative to TUT7” value did it give?
Answer: ~10 fold
